Measurements published in patent US6455025B1, “Polysaccharide-peptide derivatives” (Map Medical Technologies Oy, priority 1996, dated 2002).

How the values were obtained:
[1] = test system: tumours and other background tissues; assay: Gamma-recording after technetium-99m labelled dextran derivative: accumulation into tumours and background tissues; conditions: patient, 20 mCi technetium-99m labelled dextran derivative
Experimental: The Effect of Different Dextran Conjugates on the Tumour Accumulation and Background-activity
After the administration of 20 mCi of technetium-99 m, labelled dextran derivative to the patient a gamma-recording was carried out on the patient. From the image, the accumulation of the labelled compound into the tumours and to the other background tissues was evaluated. The compounds of the state of the art were prepared as described in the publication Holmberg et al., Antibody Immunoconj. Radiopharm 7: 253-257, 1994.

[2] = Holmberg et al. 1994; cited from earlier work

Dextran 10 000 somatostatin-^99mTc: State of the art conjugate prepared as in Holmberg et al. 1994; dextran 10 000 somatostatin labelled with technetium-99m
Background (accumulation of the labelled compound into other background tissues) [1]: +++ | Tumour (accumulation of the labelled compound into the tumours) [1]: + | half-life in blood T(1)½ [2]: 4 h | half-life in blood T(2)½ [2]: 8 h

Dextran 10 000 somatostatin-taurine-^99mTc: Technetium-99m labelled dextran 10 000 somatostatin taurine conjugate, listed under The Invention
Background (accumulation of the labelled compound into other background tissues) [1]: ++ | Tumour (accumulation of the labelled compound into the tumours) [1]: +

Dextran 40 000 somatostatin ^99mTc: State of the art dextran 40 000 somatostatin conjugate labelled with technetium-99m, without taurine
Background (accumulation of the labelled compound into other background tissues) [1]: ++ | Tumour (accumulation of the labelled compound into the tumours) [1]: ++

Dextran 40 000 somatostatin-taurine ^99mTc: Dextran 40 000-somatostatin-taurine labelled with technetium-99m using SnCl and sodium pertechnetate
Background (accumulation of the labelled compound into other background tissues) [1]: +
